Experimental data as given in patent US8349797 (dated 2013).
Read-outs that look alike come from different tables or passages of the source. Bridges are numbered along the chain shown (N, C = ends). [ ]: non-standard residue; d: D form. 1Nal = N[C@@H](Cc1cccc2ccccc12)C(=O)O; 2Nal = N[C@@H](Cc1ccc2ccccc2c1)C(=O)O; d2Nal = N[C@H](Cc1ccc2ccccc2c1)C(=O)O; Aib = CC(C)(N)C(=O)O; βAla = NCCC(=O)O

How the values were obtained:
Experiment in all cases: competition
hMC5-R [1] = target: T1, hMC5-R (human, UniProt P33032)
T1 sequence (P33032 whole entry): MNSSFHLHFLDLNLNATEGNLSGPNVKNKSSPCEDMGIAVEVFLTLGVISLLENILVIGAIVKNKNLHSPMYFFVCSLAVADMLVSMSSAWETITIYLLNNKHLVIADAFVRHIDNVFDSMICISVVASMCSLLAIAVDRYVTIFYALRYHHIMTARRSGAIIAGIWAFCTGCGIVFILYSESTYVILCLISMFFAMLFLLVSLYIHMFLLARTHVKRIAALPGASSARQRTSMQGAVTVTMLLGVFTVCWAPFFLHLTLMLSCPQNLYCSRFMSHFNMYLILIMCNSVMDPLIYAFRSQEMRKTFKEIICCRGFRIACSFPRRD

hMC4-R [2] = target: T2, hMC4-R (human, UniProt P32245)
T2 sequence (P32245 whole entry): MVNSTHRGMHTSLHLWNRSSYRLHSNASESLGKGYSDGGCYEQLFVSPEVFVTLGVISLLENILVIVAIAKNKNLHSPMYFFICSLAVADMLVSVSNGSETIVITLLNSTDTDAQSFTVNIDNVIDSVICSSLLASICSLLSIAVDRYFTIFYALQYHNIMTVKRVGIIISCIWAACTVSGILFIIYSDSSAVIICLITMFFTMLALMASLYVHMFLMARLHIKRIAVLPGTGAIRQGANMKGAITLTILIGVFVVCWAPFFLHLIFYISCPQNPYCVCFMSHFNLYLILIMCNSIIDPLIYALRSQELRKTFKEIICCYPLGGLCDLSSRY

hMC1-R [3] = target: T3, hMC1-R (human, UniProt Q01726)
T3 sequence (Q01726 whole entry): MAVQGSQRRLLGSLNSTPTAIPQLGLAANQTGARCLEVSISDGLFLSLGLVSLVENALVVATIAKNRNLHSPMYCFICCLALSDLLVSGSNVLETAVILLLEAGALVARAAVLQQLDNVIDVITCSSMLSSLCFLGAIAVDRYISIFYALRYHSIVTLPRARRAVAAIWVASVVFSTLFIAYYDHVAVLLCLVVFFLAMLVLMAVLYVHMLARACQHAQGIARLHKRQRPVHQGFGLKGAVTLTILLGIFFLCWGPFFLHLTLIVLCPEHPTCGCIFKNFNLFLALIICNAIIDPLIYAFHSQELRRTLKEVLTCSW

hMC3-R [4] = target: T4, hMC3-R (human, UniProt P41968)
T4 sequence (P41968 whole entry): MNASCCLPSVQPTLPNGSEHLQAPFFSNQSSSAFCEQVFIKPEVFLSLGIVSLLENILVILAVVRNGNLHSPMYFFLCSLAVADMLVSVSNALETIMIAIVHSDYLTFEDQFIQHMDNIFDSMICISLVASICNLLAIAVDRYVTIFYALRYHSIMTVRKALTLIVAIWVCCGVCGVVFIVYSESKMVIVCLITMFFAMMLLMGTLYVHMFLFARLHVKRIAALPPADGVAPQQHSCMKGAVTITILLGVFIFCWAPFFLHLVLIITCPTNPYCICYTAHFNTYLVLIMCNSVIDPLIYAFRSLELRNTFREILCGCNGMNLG

hMC5-R [5] = target: T1, hMC5-R; remark: listed apart in the source
hMC1-R [6] = target: T3, hMC1-R; remark: listed apart in the source
hMC4-R [7] = target: T2, hMC4-R; remark: listed apart in the source
hMC3-R [8] = target: T4, hMC3-R; remark: listed apart in the source

B1: Table 2B compound 2 (peptide)
chain: Ac-CEH[d2Nal]R[2Nal][Aib]CPPKD-NH2
modifications: disulfide 1-8
SMILES: CC(=O)N[C@H]1CSSC[C@@H](C(=O)N2CCC[C@H]2C(=O)N2CCC[C@H]2C(=O)N[C@@H](CCCCN)C(=O)N[C@@H](CC(=O)O)C(N)=O)NC(=O)C(C)(C)NC(=O)[C@H](Cc2ccc3ccccc3c2)NC(=O)[C@H](CCCNC(=N)N)NC(=O)[C@@H](Cc2ccc3ccccc3c2)NC(=O)[C@H](Cc2c[nH]cn2)NC(=O)[C@H](CCC(=O)O)NC1=O
hMC5-R [1]
  Ki: 979 nM
hMC4-R [2]
  Ki: 5.87 nM
hMC1-R [3]
  Ki: 1820 nM
hMC3-R [4]
  Ki: 306 nM

B2: Table 2B compound 1 (peptide)
chain: Ac-CEH[d2Nal]R[2Nal][βAla]CPPKD-NH2
modifications: disulfide 1-8
SMILES: CC(=O)N[C@H]1CSSC[C@@H](C(=O)N2CCC[C@H]2C(=O)N2CCC[C@H]2C(=O)N[C@@H](CCCCN)C(=O)N[C@@H](CC(=O)O)C(N)=O)NC(=O)CCNC(=O)[C@H](Cc2ccc3ccccc3c2)NC(=O)[C@H](CCCNC(=N)N)NC(=O)[C@@H](Cc2ccc3ccccc3c2)NC(=O)[C@H](Cc2c[nH]cn2)NC(=O)[C@H](CCC(=O)O)NC1=O
hMC5-R [1]
  Ki: 239 nM
hMC4-R [2]
  Ki: 10.7 nM
hMC1-R [3]
  Ki: 2060 nM
hMC3-R [4]
  Ki: 113 nM

B3: Table 2A compound 15 (peptide)
chain: Ac-CEH[d2Nal]R[1Nal]ACPPKD-NH2
modifications: disulfide 1-8
SMILES: CC(=O)N[C@H]1CSSC[C@@H](C(=O)N2CCC[C@H]2C(=O)N2CCC[C@H]2C(=O)N[C@@H](CCCCN)C(=O)N[C@@H](CC(=O)O)C(N)=O)NC(=O)[C@H](C)NC(=O)[C@H](Cc2cccc3ccccc23)NC(=O)[C@H](CCCNC(=N)N)NC(=O)[C@@H](Cc2ccc3ccccc3c2)NC(=O)[C@H](Cc2c[nH]cn2)NC(=O)[C@H](CCC(=O)O)NC1=O
hMC5-R [5]
  Ki: 348 nM
hMC1-R [6]
  Ki: 124 nM
hMC4-R [7]
  Ki: 1.11 nM
hMC3-R [8]
  Ki: 17.8 nM

B4: Table 2A compound 14 (peptide)
chain: Ac-CEH[d2Nal]R[2Nal]ACPPKD-NH2
modifications: disulfide 1-8
SMILES: CC(=O)N[C@H]1CSSC[C@@H](C(=O)N2CCC[C@H]2C(=O)N2CCC[C@H]2C(=O)N[C@@H](CCCCN)C(=O)N[C@@H](CC(=O)O)C(N)=O)NC(=O)[C@H](C)NC(=O)[C@H](Cc2ccc3ccccc3c2)NC(=O)[C@H](CCCNC(=N)N)NC(=O)[C@@H](Cc2ccc3ccccc3c2)NC(=O)[C@H](Cc2c[nH]cn2)NC(=O)[C@H](CCC(=O)O)NC1=O
hMC5-R [5]
  Ki: 359 nM
hMC1-R [6]
  Ki: 87.8 nM
hMC4-R [7]
  Ki: 1.2 nM
hMC3-R [8]
  Ki: 9.08 nM
